Assay results taken from patent publication US20250346678A1 (published 2025).

T1: human OX40 IgG1 Fc chimera (human, UniProt P43489 29-214)
T1 chain: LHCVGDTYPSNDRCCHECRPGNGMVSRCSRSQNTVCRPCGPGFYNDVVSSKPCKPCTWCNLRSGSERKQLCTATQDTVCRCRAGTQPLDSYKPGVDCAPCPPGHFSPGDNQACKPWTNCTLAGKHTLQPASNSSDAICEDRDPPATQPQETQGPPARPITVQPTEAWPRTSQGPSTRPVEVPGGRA

B1: anti-PD-L1 antibody clone 32 (antibody, V domains shown)
VH: QVQLVQSGAKVKKPGSSVKVSCKASGGTFSSYAISWVRQAPGQGLEWMGRIIPILGIANYAQKFQGRVTITADKSTSTAYMELSSLRSEDTAVYYCARVVPGYSYGPFDYWGQGTTVTVSS
VL: QSALTQPASVSGSPGQSITISCTGTSNDVGSYNSVSWYQQHPGKAPKLVIYEVANRPSGVPDRFSGSKSGNTASLTISGLQAEDEADYYCSSYTSSSTLVFGGGTKLTVLG
B2: anti-PD-L1 antibody clone 6 (antibody, V domains shown)
VH: QVQLVQSGAEVKKPGSSVKVSCKASGGTFRRYSISWVRQAPGQGLEWMGGIIPVFGAAKYAQKFQGRVTITADEFTSTAYMELSSLTSEDTAVYYCALSGDSDAFDIWGQGTMVTVSS
VL: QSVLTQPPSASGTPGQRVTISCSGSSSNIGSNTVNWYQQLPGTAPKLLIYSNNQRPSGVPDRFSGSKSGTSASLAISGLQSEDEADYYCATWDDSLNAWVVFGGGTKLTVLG
B3: anti-OX40 antibody clone B19 (antibody, V domains shown)
VH: EVQLVESGGGLVKPGGSLRLSCAASGFTFSSYSMNWVRQAPGKGLEWVSSISSSSRYIYYADSVKGRFTISRDNAKNSLYLQMNSLRAEDTAVYYCARQNEDVAFGIWGQGTMVTVSS
VL: SYVLTQPPSVSVTPGKTARIACGGNNLESKIVSWYQQKPGQAPVLVIFYDTDRPSGISERFSGSNSGNTATLTISRVEAGDEADYYCQVWDSNSDHVIFGGGTKLTVLG

Columns and labels:
[1] = biological target: T2, human PD-L1 IgG1 Fc chimera (human, UniProt Q9NZQ7 19-238); assay: ELISA
T2 sequence (Q9NZQ7 19-238, change not shown): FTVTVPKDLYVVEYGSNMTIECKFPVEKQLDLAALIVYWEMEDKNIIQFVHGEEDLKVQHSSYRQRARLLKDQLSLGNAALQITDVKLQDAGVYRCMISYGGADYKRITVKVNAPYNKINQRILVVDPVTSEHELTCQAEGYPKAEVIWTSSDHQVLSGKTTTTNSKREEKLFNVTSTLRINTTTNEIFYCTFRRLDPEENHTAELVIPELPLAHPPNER

[2] = biological target: T2, human PD-L1 IgG1 Fc chimera; assay: competition ELISA; PD-1/PD-L1 blocking
[3] = biological target: T1, human OX40 IgG1 Fc chimera; assay: ELISA

Binder	EC50 [1] [pM]	IC50 [2] [pM]	EC50 [3] [pM]
B1	34.8		
B2	82	11400	
B3			1220
